Test results reported in article PMC2992962 (Protein expression and purification, 2010).

Biological target: the molecule itself
Assay: SEC

B1: recombinant human his-GAPDHS (sperm-specific glyceraldehyde-3-phosphate dehydrogenase lacking the proline-rich N-terminal sequence) (enzyme)
chain: MVSVARELTVGINGFGRIGRLVLRACMEKGVKVVAVNDPFIDPEYMVYMFKYDSTHGRYKGSVEFRNGQLVVDNHEISVYQCKEPKQIPWRAVGSPYVVESTGVYLSIQAASDHISAGAQRVVISAPSPDAPMFVMGVNENDYNPGSMNIVSNASCTTNCLAPLAKVIHERFGIVEGLMTTVHSYTATQKTVDGPSRKAWRDGRGAHQNIIPASTGAAKAVTKVIPELKGKLTGMAFRVPTPDVSVVDLTCRLAQPAPYSAIKEAVKAAAKGPMAGILAYTEDEVVSTDFLGDTHSSIFDAKAGIALNDNFVKLISWYDNEYGYSHRVVDLLRYMFSRDK
- stoichiometry N: 4
